Source: doi:10.1101/754457

Experiments:
[1] = biological target: Mto2-134A136A (full-length, recombinant) (S. pombe) (UniProt Q9USP7); assay: SEC-MALS
[2] = biological target: Mto2-134AAA (full-length, recombinant) (S. pombe) (UniProt Q9USP7); assay: SEC-MALS

Substance | stoichiometry N [1] | stoichiometry N [2]
Mto2-134A136A (full-length, recombinant) (from UniProt Q9USP7 1-397) (natural protein) | 2 | –
Mto2-134AAA (full-length, recombinant) (from UniProt Q9USP7 1-397) (natural protein) | – | 2
